Reference: patent publication US20160017024A1 (Five Prime, published 2016)

What was measured:
Mouse LTK ECD-Fc = target: T1, Mouse LTK ECD-Fc (mouse); test: SPR (Biacore T100), ECD-Fc captured on Protein A CM4 chip
T1 construct: also called mouse LTK ECD-Fc (human Fc)
Procedure: The kₐ, kd, and KD for binding of human FAM150A to human LTK ECD-Fc (SEQ ID NO: 23) and mouse LTK ECD-Fc (SEQ ID NO: 25) was determined as follows. Binding kinetics of FAM150A to human and mouse LTK ECD-Fc fusion proteins was determined using Biacore T100 SPR (GE Healthcare Life Sciences, Piscataway, N.J.). LTK ECD-Fc fusions were captured on a CM4 sensor chip immobilized with Protein A (Thermo Scientific, Rockford, Ill.). HBS-P (GE Healthcare Life Sciences, Piscataway, N.J.) was used as the running and dilution buffer. Capture levels of the ECD-Fc fusions were adjusted to approximately 300-500RU so that binding values would be greater than the levels of non-specific binding to the reference flow cell. FAM150A was injected at […] (100 nM, 33.3 nM, 11.1 nM, 3.7 nM, 1.2 nM, 0.41 nM, 0.13 nM, 0.046 nM and 0 nM) for 120 seconds. The association constant, dissociation constant, and affinity of FAM150A for LTK Fc-ECD fusions was calculated using the Biacore T100 Evaluation software package using the 1:1 binding model.

[1] = target: full length human LTK with an HA tag at the C-terminus, expressed on transfected cells (human, UniProt P29376 17-864); test: cell-based or functional assay
Chain of full length human LTK with an HA tag at the C-terminus, expressed on transfected cells (P29376 17-864): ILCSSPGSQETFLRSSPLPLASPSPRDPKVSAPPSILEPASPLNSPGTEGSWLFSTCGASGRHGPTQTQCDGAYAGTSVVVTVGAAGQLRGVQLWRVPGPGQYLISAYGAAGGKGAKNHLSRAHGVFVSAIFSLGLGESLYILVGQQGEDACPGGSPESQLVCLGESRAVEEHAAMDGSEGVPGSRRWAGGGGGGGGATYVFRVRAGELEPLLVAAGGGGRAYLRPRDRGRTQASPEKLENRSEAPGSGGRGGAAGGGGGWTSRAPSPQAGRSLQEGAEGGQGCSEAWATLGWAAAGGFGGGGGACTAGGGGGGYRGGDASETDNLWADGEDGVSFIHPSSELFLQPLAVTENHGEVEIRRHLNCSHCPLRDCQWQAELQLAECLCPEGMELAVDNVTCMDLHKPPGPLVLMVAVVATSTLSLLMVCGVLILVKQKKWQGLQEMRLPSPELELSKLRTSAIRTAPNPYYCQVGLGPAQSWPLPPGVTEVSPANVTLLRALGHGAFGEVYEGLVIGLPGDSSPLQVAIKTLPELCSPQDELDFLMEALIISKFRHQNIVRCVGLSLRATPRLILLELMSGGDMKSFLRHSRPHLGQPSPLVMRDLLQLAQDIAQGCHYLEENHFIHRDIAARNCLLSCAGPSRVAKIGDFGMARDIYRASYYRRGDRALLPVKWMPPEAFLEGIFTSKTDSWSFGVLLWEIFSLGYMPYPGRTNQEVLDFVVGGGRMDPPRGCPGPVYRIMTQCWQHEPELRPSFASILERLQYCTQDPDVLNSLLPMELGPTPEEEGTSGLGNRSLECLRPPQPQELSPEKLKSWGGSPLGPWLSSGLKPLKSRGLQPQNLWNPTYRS

T1 sequence (chain, as listed by the source limits assumed): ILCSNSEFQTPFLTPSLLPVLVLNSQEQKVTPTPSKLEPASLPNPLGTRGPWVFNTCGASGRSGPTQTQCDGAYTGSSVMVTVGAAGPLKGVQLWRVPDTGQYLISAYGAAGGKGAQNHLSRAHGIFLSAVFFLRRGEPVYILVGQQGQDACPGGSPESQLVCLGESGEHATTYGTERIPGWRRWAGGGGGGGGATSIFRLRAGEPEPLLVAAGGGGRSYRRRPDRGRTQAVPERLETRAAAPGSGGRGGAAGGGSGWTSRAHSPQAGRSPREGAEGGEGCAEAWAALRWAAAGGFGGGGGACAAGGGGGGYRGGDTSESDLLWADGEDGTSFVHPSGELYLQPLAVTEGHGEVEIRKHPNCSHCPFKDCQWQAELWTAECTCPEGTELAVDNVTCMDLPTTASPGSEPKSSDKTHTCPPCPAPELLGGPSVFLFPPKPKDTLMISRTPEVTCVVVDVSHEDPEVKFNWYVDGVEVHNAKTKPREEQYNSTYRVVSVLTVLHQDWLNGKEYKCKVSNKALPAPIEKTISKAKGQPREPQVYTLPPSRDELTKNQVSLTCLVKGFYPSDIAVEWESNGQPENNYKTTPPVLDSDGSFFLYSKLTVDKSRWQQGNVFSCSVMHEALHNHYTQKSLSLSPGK

fold lower affinity than to human LTK ECD-Fc (Mouse LTK ECD-Fc) [fold] | EC50 for FAM150A-induced LTK phosphorylation [1] [nM] | induction of LTK phosphorylation relative to an unrelated control protein [1] [fold] | Binder
~30 | 1.96 | > 20 | Human FAM150A (ligand, Expressed in HEK 293 6E cells (or HEK293T supernatant) and secreted) RPRGRRGARVTDKEPKPLLFLPAAGAGRTPSGSRSAEIFPRDSNLKDKFIKHFTGPVTFSPECSKHFHRLYYNTRECSTPAYYKRCARLLTRLAVSPLCSQT
– | – | > 2 | Human FAM150B (ligand) GAEPREPADGQALLRLVVELVQELRKHHSAEHKGLQLLGRDCALGRAEAAGLGPSPEQRVEIVPRDLRMKDKFLKHLTGPLYFSPKCSKHFHRLYHNTRDCTIPAYYKRCARLLTRLAVSPVCMEDKQ
